Experimental data as given in the domain aggregation screens of Martell et al. (2025).

Assay: soluble fraction after stress (log2 fold change); higher = more stays soluble; pooled small domains, quantitative proteomics
Conditions: stress: pH 4
In short: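 Pooled custom libraries of small protein domains were subjected to pH 4 and measured by high-throughput quantitative proteomics. The log2 fold change in soluble amount per domain is reported, higher values meaning more remained soluble. This is used as a measure of aggregation propensity.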

| Sequence | soluble fraction (log2) |
| --- | --- |
| HMVMATPHNTAKAGDIAKTVIMPGDPLRAKYIADNYLDNAVQFNVVRNIYGYTGVYRGTDISVMASGM | 0.0409 |
| HMKGPLKDLGPDPVTGKSILVKDGKFGTYVTDGETNATLRRGDIVELLTLERGMELLAEKRARATQ | -0.0516 |
| HMRAGALTTLTERERNVFDLVVTGHSNPEIARQLSIADVTVKTHVGHILSKLGVRDRVHLVIWAHRQGLAD | 0.0561 |
| HMQQVIQSGQKVQLMATDGSFQVSAEGVALKNGSVGEVIGVRMPSGRVISGVVSASGAVEVR | 0.0769 |
| HMHEYSRIYQQQWWDNATGADAYHVIHSARSRAAQDPEAARALEYLEEQFRIRYGVRTEDFLGYLHD | -1.31 |
| HMNSFGWESFVGEKGVTDTDLRPSGWIVIKDKRLFALTEGTFIEKGVSVEILSVEGNRIVVREIS | -0.711 |
| HMENVMLRNFAIQATEAGVIKLLEDQRTFVWGSNNKKFMTVPFDEHPYSAMAAFFKTDEGLEIYKSIEKKF | -1.43 |
| HMLSAGETYTLGYLKASDGILFTAADGSEQTVMQRVQVRLYDNGDGTYTARLADDIAYSAVVTEDMIDK | 0.256 |
| HMASPEIAFLNKFYQLSNTVNEISVMKIVKNYQEKYQQRISIEQMAKTLKTMGYAVRNNIISNIEEAPV | 0.0906 |
| HMKPLIIPLELMQRLSSDKQLEAGFNRFSKSKQHEFAAYIAAAKRVETKVKRLEKIIPLILSGEGLNDR | 0.333 |
| HMKLNEQSMQVIDRIVDRHRGRPGPVKLMLHDVQKELGYIPFEAMEKIAAASGVSADEVYGVVTFYTQFTT | -1.27 |
| HMSEVPAAVLVTGGSINLREAPSTDATIIDVAQVGEKMTVLAEKNSWYQVSRGGRNVWVASWVVDPLT | -0.566 |
| HMAFRIGGFVQEGSVVRQQDGGTVRFEVTDTAHSVPVTYKGSLPDLFKEGKGVVAQGKLMNGTFVADQVLA | -0.186 |
| HMYIKYETVLQNITERIAALRKNGTLVLDGERTLAAEFDASRGTIRKAMRQLEENGTILREGYVTRILPE | -0.299 |
| HMQNDILIQADEIVGDYFDMDKEALKMNKQAVIADIEKRQATAQGDEASALHYAKQKVENEFEDDGSQKD | -0.233 |
| HMGPTLSPAEKRVFEVIPYDAILQDMVIRAAELPPGEVLAALTTLELKGLIKRLPGNLVMRRAR | -0.267 |
| HMVEAIDQALIEKQIQAVLQENSAAVKKYQAGKTEVLAFLIGQSMRKIAKKVDANLVKNILLEQLKNK | 0.077 |
| HMAATGPLTPREAEIARLAAGHLSNRQIAEQLVVSERTVENHLYRIFIKLAVTGRDDLAAALAATEQ | -1.17 |
| HMQKTIDWSQVDKEQYLSAMERSPVNDLEIKAILAKALTSDINNRELFMKGLDHSYYFEGYQLFKSE | -0.939 |
| HMGSRRFGDSNHAAKLTEEQVVEIRELAAAGATTKFLAEMVGMHPNYVGLILRGLSWPEAGGPLRVA | 0.0889 |
| HMVNEALDEFFVGLKNLYESATGKPAIAGAHFDGEPKTDFEKLMYLGYQIIRPAQAYPSALKAYERAIARS | -1.15 |
| HMQIAGLDDIDNRIIDLLLKNGRASYSEIGAAVGLSRTAAKNRIRALEASGIIRGYQAILDPQA | 0.0596 |
| HMTYKHLTIDEMKRFLSTREDSQSALVQFARVENVVGNRKGKYAVIKKWFLKNYKEEYNAFLS | 0.0391 |
| HMDVLIQEIGKRLRIQRLAMGLTQEELAKRAGISLSTLKLMEQQGKGSLQRLAKVAVVLDLDGDLRGLF | -1.01 |
| HMSNIQLVENLYRLRKAHHYTQQEISDLLNISRQAYSNYETSKRTPDLDSLMRLADIYGVSLDQLVNHP | -0.347 |

| Sequence | soluble fraction (log2) |
| --- | --- |
| HMLSAEAAAARTAISTLSEDQQRVLGLSIQRGLVHEQIARATGLPLGTVKTHIRRGLIKVREALEAQAAG | 0.0049 |
| HMVYNQYILTQSVRLREEPGISGRVIRLLETGTTVELVDTVVVNKDDYDWVWVKLSDGAVGWIIKSAIDI | -1.03 |
| HMQGEKDDLWREVLDNPDAWWDNRERKNAPGGNPRYPDFKHKDSQTPLWIESRDTPQWAIDALL | -0.406 |
| HMNKMIDAPDLTGLSLEDAKLVLEANKLQLGTVSHEPSDKPEDVVISQDPMEGQEIQQGGKVNLVVSYGD | -0.104 |
| HMIISPKKLEYRQRIINALGDRKMSLNELSKAMGYKGITTKLSFTVDDMIKSGVIEKVMVGAYAKLHIP | 0.22 |
| HMTKQDYLTALQQELNKNAVADAEDIVSEYEQHFQFKLADGFTEEEIAAKLGAPAQIALQFAG | -1.64 |
| HMGRKIDDPSSMTGAEKAAVILLALGDEQRQLWEMMDDEEIRVVSQAMVNLGNVTSGAVEKLIMEFVGSMS | -0.425 |
| HMDEYTAVDSRLDLELAMKRLKPEEAEVLRLVFDYGLPQRAIAERLGVSQMSVSRMQRRAIGKLKRWLSDN | -0.678 |
| HMKQMNETQQKAFEIYLDSATFETDYKPISEEQLAAKLDALGLKGSSSSINRWKKDFNWAQALQNKVTLAM | -0.227 |
| HMGPNPLTEREQEILQLARTGEPVARLAKRLFLSPGTVRNHLSSAIGKLGAANRVEAAQFATERGW | -0.0238 |
| HMDIEVEVPNLVGMSLDEAKSIIQSMGLVVGLTIEDPSAKVSDNSVTKQKPTYQTGVKLRSGDMIDIWYAG | -0.676 |
| HMHPLFRVVLAGEPNGVGLDDWLTRHEAELINGPSAIGVLTVKIAMGRRSFETVLDEIRADGETIFVEPV | -2.02 |
| HMTSDADSLRDKTGYVAEQVTSKGGKVNLYDGGFDSLYSARSTGETISTGTEIRVVDPGGGNMLVVEPV | -0.356 |
| HMLTEREQDTLNFIRQYIDEQGRSPLVSEIAKGLGIKSQGTTHRYIQALVDAGLLERHVGRTRGLHLT | -0.352 |
| HMVFADRLRALRKKSGLTQDEFSKQTGIGRSAVGMYESGKREPNYTTLSKVARFYHVSTDYLLGRTDTP | -0.13 |
| HMSLSPAATRSRGYPSVLLTMKAPERLVSAAGPDRRAYLVGTDPLVIELPGVKGLYKVDPDQIVFE | -0.0637 |
| HMTAVAAEQQAQDAYRQTAANNLNEIQAKYKLPDSESDDFFTFAYERGFTQEDFIDIGLVDKIMGDYV | -0.203 |
| HMKKLTNKQIIFFAEKLAHHSDFASKYSKVGESYEEFAIRLEKELNTPQKVEFYSSYLEKVGFK | -0.78 |
| HMSIQMPDLSITPVTDAKKKIESLQLQYKEVGEYNDSVIAGYVIRTEPASGSYLNEDEEVIIYVSKG | -0.525 |
| HMNMVEESVKKSSQWAVFEPNTISTWVKIQAMIENYLYQKWKEGALAGAKPEHAFFVKVGLGETM | 0.0622 |
| HMTDKLIAYSVDGILNVITSEAQSVKVYAIDGRLVRILQLGEGRNEVSGLAKGIYIVDNRKVAV | 0.0217 |
| HMNSEELFLRRIAQELIDQHGKDLHRIIVVLPSNRSKVFLKKFLFEILGSAFLTPQLMLLPQFVKSIV | -0.34 |
| HMRQPRGQRVTVREASSLLPFLFAHLTDRSRSAVKSLLRHGQIWVNGRVTTHFDMPLRPGDTVLISHERG | -0.233 |
| HMFPNSFSEREKEVVDLLLQAKSNKQIAFSLGITNRTVEYHLGNIFAKLGVSSRSEAILTITNYKNQ | -1.27 |
| HMFPNLTNEEQQVMKVLAKTNDLQINMLSVQSNLPIARLTALLFSMEMKGVVKTLAGGVYHLL | 0.375 |

| Sequence | soluble fraction (log2) |
| --- | --- |
| HMEASVNAPMPGKIVSVSVSEGQQVNAGDVLLILEAMKMQNEITADAAGTVKAINVNAGQSVKNGDSLVIL | -0.586 |
| HMRRATLERLANNTAEKAIRYKRSLALEPMNPQERRIIHAALQEVEGVSTHSVGTEPNRKVIVVPDGV | -0.186 |
| HMRRLGTTEIAGILRREISQGILIAKERLPSERSLADTYGVARGTVRQALNLLAREGLVQIRRSSGAYVTF | -0.299 |
| HMGTIEQAFKGKAPGSAHLYDRARAVLAGGVTHDTRIHAPFPIMVQRALGARKWDVDGNEYIDY | -0.259 |
| HMPAPKPSGALSLKDEPLYAASDSKRRSGTVSGTYYRWDGENVNGRMRITNKQENIGKAGQVTGWITAH | -0.00233 |
| HMPNPALESARPAFEAFLSRFSDGEAMRGPAWGLWSLLHRKGNAPTASHAAGRDGMGVLAFLRHWQWG | -0.551 |
| HMEGTEVTTEPPGAQIEFDGKQFGPTPTRVPGLAAGKQFRITLAGYQEAKPKLKNNPKEGEPLSFTLTAI | 0.264 |
| HMNLDMVINKIGIVTEDIKQDKIGEVKVLGKRWSAYSNTELKKDEKVKILSIDGVKLKVEKI | 0.413 |
| HMATTIDFTVGDDVQVMNGPLESFTGKVTELNEASQKVKVDVVMFGRVTNVELDFVQVKKIT | -0.531 |
| HMNTAIDGLIEKVGMFAMEKKAISVDQVKENFSINGEQAESVIKQLETIGVLGKKNEDGTHTVM | -0.0986 |
| HMIDELLDPTHRIMVRHPRVDYVSPGFLIGPDKDVILWGFTGGIIARLFDFLGWTRPWDQSHVQDLPPYML | -0.242 |
| HMFDFLELGQAIQDAREKQRITREELAEELGISARHLQSVEKEGQYPSFRLFIQLVTMFHISVDQYI | -0.586 |
| HMSSVGELEVGNIFEGTVNSVRGGKVLLALGNGQMVLAQMDGRVNITPGSSMFFQVKSNDGETVAIRPYTG | 0.156 |
| HMIVMPELRGKDLKEAERLLSSHNLRYELVDSVYDKSLAPGVVVEMVPQSGNTVKPGRIIFLSINA | -0.272 |
| HMKKIDVEVVRSQLIAWMADNGKSQAEVSKSMGISASALSMFIKGTYTGDNEQIGRKAAALMDLVHRQSA | 0.189 |
| HMLHMKAALGELMSIPGMRSELAGTLFDRGYTSLAQLRAATLDDLERVNGLERADARRIHDFLRKS | -0.066 |
| HMKLEKKWIEAVEKYRRYVLSTGIKHVQKPIEFENFRLGQWYADVRQSYRRGTLSKEKLLEIREINPDFPN | 0.324 |
| HMEEFIEHTVEKGEFLSAIIVAYNQHLKSKGFKSITTRDILNANPKLKPELIQVGQKIKIPRRKK | -0.0958 |
| HMPEPMKLSDLPPELWQRVSDLFDEVIDLPETDRIPYIRNLWGSEPLVAKELMALLVAAANVD | -1.1 |
| HMLGKEVVRAYNISYAIDDKGSLQGDLTAALTGLIPLSKPPVLDQRNRSLYVTATPEQHKDVAALLAKL | -0.364 |
| HMQTLQNNLKQIRSRVGLTQGELASRAGISRQAYSTLESGNANPSTEVSLRLAEALNERIESLFFLANQ | -0.846 |
| HMVVVLPGETIKIDLIREGKDKQALGYLEDGTMIVVDNAKHLIGKNVEIEIDNVLPKEAGRVIFASLHGA | -0.942 |
| HMTRLDLQNAFRVLPPEIQPAAVLFFLQERKQREIAKILGIGLPLVKYRIRKARELLAQFLRKEA | -0.073 |
| HMGPAYEKIVANGQTFYRYNVKKGEGLMAVSRTFNVSVNDILKYNPSAASGLKDGQELLIPVIDDA | -0.29 |
| HMLMTGSLQTKHGKYYVVVRIPDGLGNTKAKWINTGIPTDGNNKRKAQQRRIEILTELEENKD | 0.168 |
